Measurements taken from article PMC10732425.

What was measured:
[1] = biological target: RhlR:mBTL;PqsE (Pseudomonas aeruginosa (PA14?);Pseudomonas aeruginosa (PA14?)) (UniProt P54292+A0A0H2Z6F6); assay: EMSA; details: […] (17 of 20 uL): 200 mM KCl, 50 mM Tris-HCl pH 7.5, 250 ug/mL BSA, 50 mM NaCl, 5 nM EDTA, 5 uM MgCl2, 5 uM DTT ([…], RT 15 min
[2] = biological target: T1, RhlR:mBTL (Pseudomonas aeruginosa (PA14?)) (UniProt P54292); assay: EMSA; details: […] (17 of 20 uL): 200 mM KCl, 50 mM Tris-HCl pH 7.5, 250 ug/mL BSA, 50 mM NaCl, 5 nM EDTA, 5 uM MgCl2, 5 uM DTT ([…], RT 15 min
T1 sequence: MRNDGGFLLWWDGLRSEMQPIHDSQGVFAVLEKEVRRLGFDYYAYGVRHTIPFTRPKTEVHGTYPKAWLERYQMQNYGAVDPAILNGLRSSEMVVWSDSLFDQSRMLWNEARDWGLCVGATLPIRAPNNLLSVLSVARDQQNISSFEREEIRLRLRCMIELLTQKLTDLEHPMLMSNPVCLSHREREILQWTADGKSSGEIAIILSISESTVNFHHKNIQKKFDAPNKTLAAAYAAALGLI

With “GGGGCTTGTGTGGGTCTTGCAGATCGGCCTGCGCAAACGATTGGCGTCCGTGTTCACGCGTAGCCGATGAACACTTTTTAGCCAATTCGAAAGCTAACGGTAACTGCCAGATTTCACAGGACGGGCGGTCGCCTGCGCATAAGCCCCTGCCCGCCCGCGATAAGGCGTGCCAGAGCGGCCGGCGGGGAACAGCGAGGGGTTGGCGGAAAAGGCATGAAAA (double strand) [rhlA promoter fragment]” the binding [1] was “binds” and the binding [2] was “binds”.

In the case of “TGGATGGTCATGTCTGCCCGCGAGAGGGGCTGGATATCGTGTTGACGTTCAAGAAGGTGCATTGCCCTTTCATCCGTGAGAGAGAGTCGGGAGCCGGCGACACTAGGAGTCGGGCCGGGCGCGGACATTGATCCATGACAGGTGGGTATCTTCCCCTGCCAATTCTGGTAGGTGGGGTGCAGGTGTTCGCGCGGAAAAGTCGAACCCGCGCCTACCCCAG (double strand) [hcnA promoter fragment]”, the binding [1] is reported as “binds”.

In the case of “TATGGCGTGTCGGGAGAGATCCGCAGTCCTTGGCGGCAGGCGATGCGCAGGCAGGAAGGACGCATCGTTCAGCCAATCTACGCCGTCGACCGGGCGCGACCACTGCTAGAGTTCGCAGGAGGGCTACAGGGGTGTCCTGGCACTGGCGATGCATGGCCCGGTGCCGGTCTATGGCAGCCGCCTGCCGGCCCACTCGTTCGATTGTTACGCTGTCTGTAAT (double strand) [lecB promoter fragment]”, the binding [1] is reported as “binds”.
